Data on 2 molecules can be found in patent US20190225703A1 (INNATE PHARMA, published 2019).

For experiment [1], the target named is T1, human CD73 (ecto-5'-nucleotidase) expressed at the cell surface (human, UniProt P21589 27-549).
T1 construct: Used for huCD73-expressing recombinant cell lines, MDA-MB-231 cells (endogenous CD73), HEK-293T cells with wild type CD73, and primary T and B cells; also called huCD73; wild type CD73
T1 sequence: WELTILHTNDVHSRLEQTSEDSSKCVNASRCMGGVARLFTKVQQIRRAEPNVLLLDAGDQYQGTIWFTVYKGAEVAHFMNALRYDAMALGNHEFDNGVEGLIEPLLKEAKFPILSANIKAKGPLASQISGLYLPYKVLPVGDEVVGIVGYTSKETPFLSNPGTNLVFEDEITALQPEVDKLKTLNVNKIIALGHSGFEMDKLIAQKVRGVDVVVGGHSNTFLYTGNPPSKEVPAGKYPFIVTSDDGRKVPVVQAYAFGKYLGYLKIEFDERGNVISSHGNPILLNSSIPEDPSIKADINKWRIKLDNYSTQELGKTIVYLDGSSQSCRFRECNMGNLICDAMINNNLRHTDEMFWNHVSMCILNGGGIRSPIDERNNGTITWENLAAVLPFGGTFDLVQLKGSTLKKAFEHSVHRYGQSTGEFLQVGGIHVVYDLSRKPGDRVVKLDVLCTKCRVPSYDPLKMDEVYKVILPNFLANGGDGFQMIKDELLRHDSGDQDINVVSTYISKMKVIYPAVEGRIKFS
The experiment is described as follows: flow cytometry titration on human-CD73-expressing cell line. On the procedure: (§1) 10⁵ cells resuspended in PBS/0.2% BSA/0.02% NaN3 (named “staining buffer”) are distributed into round bottom 96W-microplates. Dose-range of anti-CD73 antibodies was added to the plates and cells are incubated for 45 min at 4° C. Cells were washed three times in staining buffer by spinning plates at 400 g for 3 min at 4° C. PE-coupled goat anti-mouse or goat anti-human IgG Fc fragment secondary antibodies (Beckman Coulter) diluted in staining buffer were added to the cells and plates are incubated for 30 additional minutes at 4° C. Cells were washed three times as described above and analyzed on an Accury C6 flow cytometer equipped with an HTFC plate reader.
(§2) Median of fluorescence vs. antibodies concentration was plotted on graphs and EC50 is calculated using GraphPad Prism program.
A general note: In flow cytometry, cells or beads pass a laser one at a time.

In experiment [2] the target is T2, cynomolgus CD73 expressed at the cell surface (cynomolgus).
T2 construct: whole, on cells; Recombinant cell line expressing cynomolgus CD73; also called cynoCD73
Description: flow cytometry titration on cynomolgus-CD73-expressing cell line. On the procedure: as §1, §2

Experiment [3] concerns the target T1, human CD73 (ecto-5'-nucleotidase) …. Description: flow cytometry titration on HEK-293T cells transfected with wild type human CD73. On the procedure:
(§3) Anti-CD73 antibodies are tested for their binding to each mutant by flow cytometry. A first experiment is performed to determine antibodies that lose their binding to one or several mutants at one concentration. To confirm a loss of binding, titration of antibodies is done on antibodies for which binding seemed to be affected by the CD73 mutations (1-0.1-0.01-0.001 μg/ml).

The target is the same in experiment [4]. Description: flow cytometry titration on MDA-MB-231 cells, endogenous CD73. On the procedure: as §1, §2
The target in experiment [5] is T3, recombinant human CD73-His extracellular domain protein, soluble dimer (human, UniProt P21589 27-547).
T3 construct: also called huCD73 protein; human recombinant soluble dimeric CD73
T3 sequence: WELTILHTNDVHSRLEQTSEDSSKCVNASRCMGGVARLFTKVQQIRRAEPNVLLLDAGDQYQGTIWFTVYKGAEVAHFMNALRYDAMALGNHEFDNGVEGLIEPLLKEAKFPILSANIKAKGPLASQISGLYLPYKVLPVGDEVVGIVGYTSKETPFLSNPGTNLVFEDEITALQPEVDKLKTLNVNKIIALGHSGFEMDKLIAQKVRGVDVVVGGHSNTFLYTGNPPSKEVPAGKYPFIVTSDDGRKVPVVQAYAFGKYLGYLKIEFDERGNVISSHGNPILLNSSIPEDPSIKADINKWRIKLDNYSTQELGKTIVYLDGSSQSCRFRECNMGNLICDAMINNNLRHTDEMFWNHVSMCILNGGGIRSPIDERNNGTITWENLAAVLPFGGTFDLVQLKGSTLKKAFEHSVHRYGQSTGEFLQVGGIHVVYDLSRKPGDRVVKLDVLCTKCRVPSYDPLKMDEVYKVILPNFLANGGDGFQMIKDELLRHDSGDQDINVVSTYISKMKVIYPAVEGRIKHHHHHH
Description: SPR (Biacore T100, 25 °C), antibody captured on Protein-A, soluble dimeric CD73 injected 1.23 to 300 nM, 1:1 kinetic model, bivalent affinity. On the procedure:
SPR measurements were performed on a Biacore T100 apparatus (Biacore GE Healthcare) at 25° C. In all Biacore experiments HBS-EP+(Biacore GE Healthcare) and NaOH 10 mM served as running buffer and regeneration buffer respectively. Sensorgrams were analyzed with Biacore T100 Evaluation software. Protein-A was purchase from (GE Healthcare). Human soluble dimeric CD73 proteins were cloned, produced and purified at Innate Pharma.
Protein-A proteins were immobilized covalently to carboxyl groups in the dextran layer on a Sensor Chip CMS. The chip surface was activated with EDC/NHS (N-ethyl-N′-(3-dimethylaminopropyl) carbodiimide hydrochloride and N-hydroxysuccinimide (Biacore GE Healthcare). Protein-A was diluted to 10 μg/ml in coupling buffer (10 mM acetate, pH 5.6) and injected until the appropriate immobilization level was reached (i.e. 2000 RU). Deactivation of the remaining activated groups was performed using 100 mM ethanolamine pH 8 (Biacore GE Healthcare).
Affinity study was carried out according to a standard Capture-Kinetic protocol recommended by the manufacturer (Biacore GE Healthcare kinetic wizard). Serial dilutions of human recombinant soluble dimeric CD73 proteins, ranging from 1.23 to 300 nM were sequentially injected over the captured anti-CD73 antibodies and allowed to dissociate for 10 min before regeneration. […]
(In SPR one partner is held on a chip, and binding of the other changes the refractive index at the surface.)

The target of experiment [6] is T4, mouse CD73 expressed at the cell surface (mouse, UniProt Q61503 29-551).
T4 construct: whole, on cells; Recombinant cell line expressing mouse CD73; also called moCD73
T4 sequence (looked up): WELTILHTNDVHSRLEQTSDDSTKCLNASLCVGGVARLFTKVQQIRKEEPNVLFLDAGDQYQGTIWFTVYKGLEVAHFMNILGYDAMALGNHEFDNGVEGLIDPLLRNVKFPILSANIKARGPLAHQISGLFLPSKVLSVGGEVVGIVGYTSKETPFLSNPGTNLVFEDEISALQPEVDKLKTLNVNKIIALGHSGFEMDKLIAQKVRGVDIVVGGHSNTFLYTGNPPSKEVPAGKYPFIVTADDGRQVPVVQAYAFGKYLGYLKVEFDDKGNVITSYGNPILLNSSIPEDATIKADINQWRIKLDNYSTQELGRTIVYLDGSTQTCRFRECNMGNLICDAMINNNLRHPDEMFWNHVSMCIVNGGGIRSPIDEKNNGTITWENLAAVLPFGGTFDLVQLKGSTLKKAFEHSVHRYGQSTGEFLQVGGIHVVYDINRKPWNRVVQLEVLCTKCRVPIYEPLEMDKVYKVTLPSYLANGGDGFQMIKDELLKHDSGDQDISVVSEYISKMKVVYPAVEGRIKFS
Description: flow cytometry titration on a cell line expressing mouse CD73. On the procedure:
as §1, §2

The target in experiment [7] is T5, human CD73 mutant 2 (human, UniProt P21589 27-549).
T5 construct: Transfected in HEK-293T cells; The cell prints A1071, read as A107I
T5 chain: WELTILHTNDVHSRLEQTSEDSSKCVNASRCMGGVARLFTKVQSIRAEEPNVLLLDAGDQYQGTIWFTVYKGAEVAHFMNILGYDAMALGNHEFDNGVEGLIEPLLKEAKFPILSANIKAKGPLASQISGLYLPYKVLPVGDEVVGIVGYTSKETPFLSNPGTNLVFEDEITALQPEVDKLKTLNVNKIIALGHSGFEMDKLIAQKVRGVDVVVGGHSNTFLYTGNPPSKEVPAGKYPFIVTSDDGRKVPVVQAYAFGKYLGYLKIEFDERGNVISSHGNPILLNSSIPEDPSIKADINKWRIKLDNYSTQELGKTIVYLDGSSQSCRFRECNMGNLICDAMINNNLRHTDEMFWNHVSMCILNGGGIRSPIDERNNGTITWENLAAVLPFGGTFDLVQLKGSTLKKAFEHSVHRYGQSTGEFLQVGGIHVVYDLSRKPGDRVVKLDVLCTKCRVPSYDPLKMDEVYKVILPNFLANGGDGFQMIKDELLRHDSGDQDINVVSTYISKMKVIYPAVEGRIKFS
The experiment is described as follows: flow cytometry titration on HEK-293T cells transfected with CD73 mutant 2. On the procedure:
as §3

The target of experiment [8] is T6, human CD73 mutant 3 (human, UniProt P21589 27-549).
T6 construct: Transfected in HEK-293T cells
T6 chain: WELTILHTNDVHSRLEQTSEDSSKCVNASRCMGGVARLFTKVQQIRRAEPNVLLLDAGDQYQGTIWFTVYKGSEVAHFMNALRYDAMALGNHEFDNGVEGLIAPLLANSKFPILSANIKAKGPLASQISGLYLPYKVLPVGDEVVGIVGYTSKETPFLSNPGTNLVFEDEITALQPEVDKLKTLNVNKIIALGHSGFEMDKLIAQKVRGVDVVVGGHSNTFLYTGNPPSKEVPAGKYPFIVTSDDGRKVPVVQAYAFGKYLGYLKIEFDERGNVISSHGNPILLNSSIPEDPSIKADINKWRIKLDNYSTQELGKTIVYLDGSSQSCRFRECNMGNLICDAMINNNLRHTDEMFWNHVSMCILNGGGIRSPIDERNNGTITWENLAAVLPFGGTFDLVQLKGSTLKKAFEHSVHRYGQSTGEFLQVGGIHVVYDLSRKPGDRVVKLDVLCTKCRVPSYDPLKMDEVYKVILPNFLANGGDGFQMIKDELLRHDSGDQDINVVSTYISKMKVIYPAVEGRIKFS
Description: flow cytometry titration on HEK-293T cells transfected with CD73 mutant 3.

Experiment [9] concerns the target T7, human CD73 mutant 4 (human, UniProt P21589 27-549).
T7 construct: Transfected in HEK-293T cells
T7 chain: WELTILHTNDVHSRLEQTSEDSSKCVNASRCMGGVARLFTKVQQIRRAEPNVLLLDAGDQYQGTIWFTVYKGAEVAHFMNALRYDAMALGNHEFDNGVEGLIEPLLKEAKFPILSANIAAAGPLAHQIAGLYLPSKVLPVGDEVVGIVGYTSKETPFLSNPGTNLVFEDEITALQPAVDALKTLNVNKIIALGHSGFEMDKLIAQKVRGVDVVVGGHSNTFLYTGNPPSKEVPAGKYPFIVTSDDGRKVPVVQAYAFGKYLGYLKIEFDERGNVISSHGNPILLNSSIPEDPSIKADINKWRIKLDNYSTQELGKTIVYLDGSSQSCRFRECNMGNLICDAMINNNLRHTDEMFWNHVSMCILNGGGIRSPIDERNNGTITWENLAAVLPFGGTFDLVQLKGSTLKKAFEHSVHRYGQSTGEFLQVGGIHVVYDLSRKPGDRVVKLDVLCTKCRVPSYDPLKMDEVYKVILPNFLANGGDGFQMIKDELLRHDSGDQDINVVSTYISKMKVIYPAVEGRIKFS
The experiment is described as follows: flow cytometry titration on HEK-293T cells transfected with CD73 mutant 4. On the procedure:
as §3

Experiment [10] has as its target T8, human CD73 mutant 5 (human, UniProt P21589 27-549).
T8 construct: Transfected in HEK-293T cells
T8 chain: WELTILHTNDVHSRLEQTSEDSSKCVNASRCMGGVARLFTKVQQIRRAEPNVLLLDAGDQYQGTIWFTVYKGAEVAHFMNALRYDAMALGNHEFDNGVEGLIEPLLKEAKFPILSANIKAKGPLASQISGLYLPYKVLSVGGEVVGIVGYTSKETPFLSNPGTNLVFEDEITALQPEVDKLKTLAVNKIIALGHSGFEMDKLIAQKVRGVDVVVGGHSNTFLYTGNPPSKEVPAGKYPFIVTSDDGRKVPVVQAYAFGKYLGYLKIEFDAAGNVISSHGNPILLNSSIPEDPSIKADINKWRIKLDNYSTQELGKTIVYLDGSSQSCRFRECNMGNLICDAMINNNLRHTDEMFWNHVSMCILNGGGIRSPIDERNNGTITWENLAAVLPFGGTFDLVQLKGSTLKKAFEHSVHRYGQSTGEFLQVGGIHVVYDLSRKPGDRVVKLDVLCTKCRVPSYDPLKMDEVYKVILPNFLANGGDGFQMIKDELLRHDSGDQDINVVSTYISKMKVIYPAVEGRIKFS
The experiment is described as follows: flow cytometry titration on HEK-293T cells transfected with CD73 mutant 5.

B1: antibody 12F9 (antibody, human IgG1, V domains shown)
VH: QVQLQQSGPELVKPGASVRISCKASGYTFTNYYIHWVKQRPGQGLEWIGWIYPGNVNTKYNEKFKGKATLTADKSSNTAYMQLSSLTSEDSAVYFCAREGGYDRYALDYWGQGTSVTVSS
VL: QIVLTQSPALMSASPGEKVTMTCSASSSVSYMYWYQQKPRSSPKPWIYLTSNLASGVPARFSGSGSGTSYSLTISSMEAEDAATYYCQQWSSNPLTFGAGTKLELK
By EC50 is commonly meant the midpoint of the concentration-response curve. As usually defined, the EC50 (read off the curve) is the concentration needed to bring the measured effect to its halfway point. A lower EC50 (read off the curve) goes with a more potent agent. For B1, the EC50 is 0.137 µg/mL in experiment [1], 0.527 µg/mL in experiment [2] and 0.036 µg/mL in [4]. For the same molecule, the “EC50 (read off the curve)” value in experiment [3] and in experiment [7] was around 0.2 µg/mL throughout. The Kd in [5] worked out at 938 pM. Also, in [6], the binding result is listed as “no binding (tested: 10 µg/ml)”.

B2: antibody AD2 (Biolegend Corp, product ref. 344004) (antibody, V domains shown)
VH: EVQLQQSGAELVKPGASVKLSCTASGFNIKDTYIHWVKQRPEQGLEWIGRIDPATGNTEYDPKFQGKATITADTSSNTAYLHLSSLTSEDTAVYYCARGYYGSSYPPWFAYWGQGTLVTVS
VL: DIVMTQSHKFMSTSVGDRVSITCKASQDVGSAVAWYQQKPGQSPKLLIYWASTRHTGVPDRFTGSGSGTDFTLTISNVQSEDLADYFCQQYSSYPLTFGAGTKLELK
Regarding B2, the EC50 worked out at 0.743 µg/mL in [1] and 0.431 µg/mL in experiment [4]. For the same molecule, the “fold higher concentration (EC50) than 7H10” value in experiment [1] was around 4 fold. The “EC50 (read off the curve)” value is around 0.1 µg/mL in experiment [8], around 0.2 µg/mL in experiment [3], around 0.06 µg/mL in experiment [9] and around 0.07 µg/mL in [10].
